Experimental data from publication PMC5612032.

Target: Amyloid-β peptide Aβ(1-42)
Experiment: NMR titration; 5 μM soluble pEAβ(3-42), 5% Aβ(1-42) fibrils added directly; decrease of the NMR signal of soluble pEAβ(3-42) within ca. 10 min; 10 mM sodium phosphate pH 7.4, 37 °C

decrease in NMR signal intensity of soluble pEAβ(3-42): 50%
stoichiometry N (pEAβ(3-42) : Aβ(1-42) in fibrils): 10
Substance: Pyroglutamate-modified amyloid-β pEAβ(3-42) (peptide)
